Test results published in PMC6167328, “Elucidating a role for the cytoplasmic domain in the Mycobacterium tuberculosis mechanosensitive channel of large conductance” (Scientific Reports, 2018).

Molecular target: the molecule itself
Assay: crystal structure

B1: C-terminal domain truncation of the Mycobacterium tuberculosis mechanosensitive channel of large conductance (MtMscLΔC) (domain or fragment)
chain: MLKGFKEFLARGNIVDLAVAVVIGTAFTALVTKFTDSIITPLINRIGVNAQSDVGILRIGIGGGQTIDLNVLLSAAINFFLIAFAVYFLVVLPYNTLRKKG
notes: Residues 97-101 are not resolved in the model; also called Mt ∆C
  stoichiometry N: 5
